From patent US20250276082A1 (INNOLAKE BIOPHARMA HANGZHOU, published 2025)
Positions count from the first letter of the chain named.

T1: B7H3-hFc (UniProt Q5ZPR3 29-466, limits assumed)
T1 construct: Construct limits, linker and Fc not described; also called B7H3-hFc protein; not shown: human Fc (hFc)
T1 sequence (looked up): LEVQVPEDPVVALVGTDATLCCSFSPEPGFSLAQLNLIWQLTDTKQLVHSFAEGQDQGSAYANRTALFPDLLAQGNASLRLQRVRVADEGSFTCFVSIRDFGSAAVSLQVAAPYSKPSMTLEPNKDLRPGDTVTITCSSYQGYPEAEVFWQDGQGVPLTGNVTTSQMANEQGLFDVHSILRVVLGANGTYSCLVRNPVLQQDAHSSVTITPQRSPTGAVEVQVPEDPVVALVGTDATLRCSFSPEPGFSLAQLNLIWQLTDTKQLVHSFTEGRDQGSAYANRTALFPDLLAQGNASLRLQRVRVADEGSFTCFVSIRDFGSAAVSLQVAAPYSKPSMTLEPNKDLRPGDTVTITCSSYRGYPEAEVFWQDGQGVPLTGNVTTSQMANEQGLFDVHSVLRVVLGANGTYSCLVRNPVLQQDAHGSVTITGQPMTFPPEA

T2: B7H3 on the cell surface (PC9 cells; 293T-B7H3 cells) (UniProt Q5ZPR3 29-534, limits assumed)
T2 construct: whole, on cells; both carry B7H3 on the surface; also called Cell Surface B7H3; B7H3 protein in PC9 cells
T2 sequence (looked up): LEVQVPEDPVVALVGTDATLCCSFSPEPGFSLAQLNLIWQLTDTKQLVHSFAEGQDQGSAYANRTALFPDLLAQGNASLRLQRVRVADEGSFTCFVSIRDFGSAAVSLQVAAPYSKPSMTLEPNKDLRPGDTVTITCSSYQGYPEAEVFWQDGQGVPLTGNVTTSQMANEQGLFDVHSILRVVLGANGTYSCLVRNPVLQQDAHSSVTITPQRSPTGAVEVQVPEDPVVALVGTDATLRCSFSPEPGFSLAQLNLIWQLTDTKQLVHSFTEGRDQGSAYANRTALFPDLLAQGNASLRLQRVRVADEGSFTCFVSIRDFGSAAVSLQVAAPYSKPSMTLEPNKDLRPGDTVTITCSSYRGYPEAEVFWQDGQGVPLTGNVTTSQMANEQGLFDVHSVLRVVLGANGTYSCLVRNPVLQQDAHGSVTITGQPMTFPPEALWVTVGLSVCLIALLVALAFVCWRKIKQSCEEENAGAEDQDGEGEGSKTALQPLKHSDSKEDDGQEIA

B1: 5B6 (antibody, mouse IgG1, V domains shown)
VH: QVQLQQSGAELARPGASVKMSCKTSGYTFITYTIHWVKQRPGQGLEWIGYINPTSDYANFNQKFKDKATLTADKSSRTAYMQLSSLTSEDSAVYYCARWGTTVFQFYFDYWGQGTTLTVSS
VL: QIVLSQSPAILSASPGEKVTMTCRASQSLSYINWYQLKPGSSPKPWIYATSSLQSGVPARFSGSASGTSYSLTISRVEAEDAATYFCQHWSSDPPTIGGGTKLEIK
notes: Murine hybridoma antibody; also called B7H3 hybridoma monoclonal antibody 5B6
B2: 7F5 (antibody, mouse IgG1, V domains shown)
VH: EVQLQQSGAELVRPGALVKLSCKTSGFNIKAYYIHWVKQRPEQGLEWIGWIDPENGNTFYDPKFQGKASITADTSSNTAYLQLSSLTSEDAAVYYCTRSSTRLRPFDYWGQGTTLTVSS
VL: DIVMTQAAFSNPVTLGTSASISCRSSKSLLHSNGITYLYWYLQKSGQSPQLLIYQMSNLASGVPDRFSSSGSGTDFTLRISRVEAEDVGVYYCAQNLELYTFGGGTKLEIK
notes: Murine hybridoma antibody purified by protein A; also called B7H3 hybridoma monoclonal antibody 7F5
B3: 7E6 (antibody, mouse IgG1, V domains shown)
VH: QVQLQQSGPELVRPGVSVKISCKGSGYTFTDYAMHWVKQSHAKSLEWIGVINSYYGNTHYNQKFKGKATMTVDKSSSTAYMELARLTSEDSAIYYCARAGGYSYGSSYRPDRFAYWGQGTLVIVSA
VL: DIQMTQSPASQSASLGESVTITCLASQTIGTWLAWYQQKPGKSPQLLIYAATNLADGVPSRFSGSGSGTKFSFKISSLQAEDFVSYYCQQLYSTPYTFGGGTKLEIK
notes: Murine hybridoma antibody; also called B7H3 hybridoma monoclonal antibody 7E6
B4: 2F7 (antibody, mouse IgG2b, V domains shown)
VH: QVQLQQPGAELVKPGASVKLSCKASGYTFTSYYIYWLKQRPGQGLEWIGGIKPSNGDTNFNAKFMNKATLTVDKSSSTAYMQLSSLTSEDSAIYYCTRFFYGSPYDFDVWGAGTTVTVSS
VL: NIVMTQSPKSMSMAVGERVTLTCKASENVDTHVSWYQQKPEQSPTLLMYGTSNRFTGVPDRFTGSGSATDFTLTISSVQAEDLADYHCGQSYRYPYTFGGGTKLEIK
notes: Murine hybridoma antibody; also called B7H3 hybridoma monoclonal antibody 2F7
B5: 14B3 (antibody, mouse IgG1, V domains shown)
VH: QVQLQQSGPELVRPGVSVKISCKGSGYTFTDHAIHWVKQSHAKSLEWIGVINTYSGNTNFNQKLKGKATMTVDKSSSTAYMELARLTSEDSAIYYCARGAHSSGYPYWYFDVWGAGTTVTVSS
VL: QIVLSQSPAILSASAGEKVTMTCRASSSVSYMHWYQQKPGSSPKPWIYATSNLASGVPARFSGSGSGTSYSLTISRVEAEDAATYYCQQWSTNPFTFGSGTKLEMK
notes: Murine hybridoma antibody; also called B7H3 hybridoma monoclonal antibody 14B3
B6: 13A2 (antibody, mouse IgG2b, V domains shown)
VH: EVQLQQSGPELVKPGASVKISCKTSGYTFTEYVMHWVKQRHGQSLEWIGGINPNTGGTTYNQKFEGKATLTVDKSSSSAYMEFRSLTSEDSAVYYCARRMPFGISAMDYWGQGTSVTVSS
VL: QIVLTQSPAIMSASPGEKVTMTCSASSSVSYIHWFQQKSGTSPKRWISETSKLASGVPARFSGSGSGTSYSLTISSMGAEDAATYYCHQWISYPPTFGAGTKLELK
notes: Murine hybridoma antibody; also called B7H3 hybridoma monoclonal antibody 13A2
B7: 2A9 (antibody, mouse IgG2b, V domains shown)
VH: EVQLQQSGPELVKPGASVKISCKTSGYTFTEYIMHWVKQSRGKSLEWIGGINPNSGGTTYNEKFKGKATLTVDKSASTAYMELRSLTSEDSAIYYCARRMPYWYFDVWGAGTTVTVSS
VL: B6 VL with F35Y, Q36R, I47V, S48Y, E49D, G78E, H88Q, I91V, Y93N, P95L
notes: Murine hybridoma antibody; also called B7H3 hybridoma monoclonal antibody 2A9
B8: 15A2 (antibody, mouse IgG1, V domains shown)
VH: QVQLQQSGPEVVKPGALVRISCKASGYTFTSYDINWVKQRPGQGLEWIGWIDPGDGSTKYNEKFKGKATLTADKSSSTAYMQFSSLTSENSAVYFCVRRGFDYWGQGTTLTVSS
VL: QILLTQSPAIMSASPGEKVTMTCRTSSSVSYLHWFQQKPGSSPKLWIHDTSNLASGFPARFSGSGSGTSYSLIISSMEAEDAATYYCHQRSSYPWTFGGGTKLEIK
notes: Murine hybridoma antibody; also called B7H3 hybridoma monoclonal antibody 15A2
B9: 2E10 (antibody, mouse IgG2a, V domains shown)
VH: EVQLQQSGPELVKPGASVKISCKTSGYTFTEYTMHWVKQSHGKNLEWIGGINTDNGGTTYSQKFKDKATLTVDRSSSTAYMVLRSLTSEDSAVYYCARSFNNYGPAWFAYWGQGALVTVSA
VL: DIVMTQSHKFMSTSIGDRVSITCKASQDVRSAVAWYQQRPGQSPKLLIYWASTRHTGVPARFTGSGSGTDYTLTINNVQSEDLAGYFCQQYSSYFTFGGGTKLEKK
notes: Murine hybridoma antibody; also called B7H3 hybridoma monoclonal antibody 2E10
B10: 7C9 (antibody, mouse IgG1, V domains shown)
VH: EVQLQQSGTELVRPGALVKLSCKASALNIKDFYMHWVKQRPERGLEWIGWIDPDNGNTIYDPKFQGKASITADISSSTAYLQLSSLTSEDTAVYYCARSSTRQRPFDYWGQGTTLTVSS
VL: DIVMTQSHKVMSTSVGDRVSITCKASQDVRTGVAWYQQKPGQSPKLLIYSAFYRYTGVPDRFTVSGSGADFTFTITSVQAEDLAVYYCQQYYSIPWTFGGGTKLEIK
notes: Murine hybridoma antibody; also called B7H3 hybridoma monoclonal antibody 7C9
B11: 7B7 (antibody, mouse IgG2b, V domains shown)
VH: EVKLVESGGGLVRPGGSLKLSCAASGFTFSSYAVSWVRQTPEKRLEWVASISGGGIYIYYPDSVKGRFTISRDNAKNNLYLQMNSLTPDDTALYYCARHGGAGYFDYWGQGTTLTVSS
VL: DSLMTQSPASLSASVGETVTITCRGSESVHSYLAWYQQKQGKSPQLLVYNAKTLQSGVPSRFSGSGSGTQFSLRINSLQPEDFGTYYCQQHYGSPPWTFGGGTILEIK
notes: Murine hybridoma antibody; also called B7H3 hybridoma monoclonal antibody 7B7
B12: 9C8 (antibody, mouse IgG1, V domains shown)
VH: EVQLQQSGPELVKPGASVKISCKTSGYTFTEYTIHWVKQSHGKSLEWIGGINPNSGGTTYNLKFKGKATLTVDKSSSTVYMELRSLTSEDSAVYYCARKEGFFTTDYWGQGTTLTVSS
VL: QTVLTQSPAIMSASPGEKVTMTCSASSSLSYIHWYRQKSGTSPKRWIYDTSNLATGVPVRFSGSGSGTSYSLTISSMEAEDAATYYCQQWHYNPPTFGGGTKLEIK
notes: Murine hybridoma antibody; also called B7H3 hybridoma monoclonal antibody 9C8
B13: 2F12 (antibody, mouse IgG1, V domains shown)
VH: EVQLQQSGPELVKSGASVNISCKTSGYTFTENTMHWVKLSHGKSLEWIGGINPNNGGTTYNQKFKGKATLTVDKSSSTAYMELRSLTSEDSAVYYCARRGRWPPDWYFDVWGAGTTVTVSS
VL: B6 VL with V29L, I32M, F35Y, S48Y, E49D, G78E, H88Q, I91S, Y93N, P95L
notes: Murine hybridoma antibody; also called B7H3 hybridoma monoclonal antibody 2F12

Molecular target: T1, B7H3-hFc
Assay: ELISA, B7H3-hFc coated plate, purified hybridoma antibody
Description: (1) Screening of B7H3-binding positive clones through ELISA: 50 μL of B7H3-hFc (final concentration: 2 μg/mL) was used to coat each well of a 96-well ELISA plate (Corning, Cat. No.: 9018), and incubated overnight at room temperature. After the ELISA plate was rinsed with washing buffer (PBS+0.05% Tween20) 3 times, blocking buffer (PBS+2% BSA (Sigma, Cat. No.: V90093)) was added and the ELISA plate was incubated at room temperature for 1 hour. The ELISA plate was rinsed with washing buffer 3 times; and hybridoma supernatant was added, and the ELISA plate was incubated at room temperature for 1 hour and rinsed 3 times. 100 μL of 10,000-fold diluted HRP-conjugated goat anti-mouse IgG secondary antibody (Thermo, Cat. No.: 31432) was added to each well, and the ELISA plate was incubated at room temperature for 1 hour in the dark and rinsed 3 times. 100 μL of TMB (Biocytogen, Cat. No.: ES-002) was added to each well, and the ELISA plate was incubated at room temperature for color development for 2 minutes, 100 μL of reaction terminating solution (2N H2SO4) was added to each well to terminate the color reaction, and an OD450 value of each well was read using a microplate reader (Tecan Spark). (2) Screening of B7H3-binding positive clones through FACS: 50 μL of the positive hybridoma supernatant or purified hybridoma antibody in the foregoing test was mixed with 50 μL of 293T-B7H3 cells (2×10⁵ cells/well), and a resulting mixture was added to a 96-well plate with a U-shaped bottom and left standing at 4° C. for 1 hour, the 96-well plate was rinsed with FACS buffer (PBS+3% FCS) and centrifuged twice, then 400-fold diluted PE-labeled goat anti-mouse secondary antibody (Biolegend, Cat. No.: 405307) was added, the 96-well plate was incubated at 4° C. for 30 minutes in the dark, rinsed with FACS buffer and centrifuged twice, and signal values of the cells in a PE channel were detected by using BD Accuri C6 flow cytometer. (3) Subcloning: Positive multiclonal hybridoma cells identified by ELISA and FACS were subcloned using the limiting dilution method. The subclones were further detected and screened using ELISA and FACS to obtain positive hybridoma monoclonal clones.
ELISA and FACS were conducted to detect the binding ability of purified antibody samples to B7H3. Results are shown in FIG. 1(a-b), FIG. 2(a-b) and Table 1.

EC50 [µg/mL]	Binder
0.00493	B1
0.00576	B2
0.00449	B3
0.00278	B4
0.0091	B5
0.00052	B6
0.00624	B7
0.00151	B8
0.0067	B9
0.0099	B10
0.0097	B11
0.0104	B12

Molecular target: T2, B7H3 on the cell surface (PC9 cells; …)
Assay: FACS on cells carrying B7H3 (PC9 per FIG. 2; 293T-B7H3 per method)

EC50 [µg/mL]	Binder
0.0713	B1
0.197	B2
0.0526	B3
0.177	B4
0.248	B5
0.101	B6
0.186	B7
0.217	B13
0.0062	B8
0.234	B9
0.103	B10
0.179	B11
0.0861	B12
